Numbered stars: 1 amine (or outer) side, 2 acyl side, 3 side chain; on linkers, the order of the positions; unused ones are H or OH. Bridge positions count the residues as written; N and C are the ends. Ends that are not written are not given here. Phenylene(1,4-NHCOCH2)2 = O=C(C[*:1])Nc1ccc(NC(=O)C[*:2])cc1
How the values were obtained:
WWP1 = molecular target: T1, WWP1 (Homo sapiens, UniProt Q9H0M0); assay: Naive Library Presenter Screening (phage, NGS), WWP1 (construct not given); format: binding; settings: for interaction data at Target Concentration 10: WWP1 target concentration 10 nM; for interaction data at Target Concentration 30: WWP1 target concentration 30 nM; for interaction data at Target Concentration 100: WWP1 target concentration 100 nM; for interaction data at Target Concentration 300: WWP1 target concentration 300 nM; for interaction data at Target Concentration 1000: WWP1 target concentration 1000 nM
T1 construct: GST-TEV (N, cleaved yes); made in house; host or cells: Escherichia coli BL21 (DE3)

WWP2^HECT = molecular target: T2, WWP2^HECT (Homo sapiens, UniProt O00308); assay: Naive Library Presenter Screening (phage, NGS), WWP2^HECT; format: binding; settings: for interaction data at Target Concentration 10: WWP2 target concentration 10 nM; for interaction data at Target Concentration 30: WWP2 target concentration 30 nM; for interaction data at Target Concentration 100: WWP2 target concentration 100 nM; for interaction data at Target Concentration 300: WWP2 target concentration 300 nM; for interaction data at Target Concentration 1000: WWP2 target concentration 1000 nM
T2 construct: GST-TEV (N, cleaved yes); made in house; host or cells: Escherichia coli BL21 (DE3)
T2 sequence (O00308 492-865): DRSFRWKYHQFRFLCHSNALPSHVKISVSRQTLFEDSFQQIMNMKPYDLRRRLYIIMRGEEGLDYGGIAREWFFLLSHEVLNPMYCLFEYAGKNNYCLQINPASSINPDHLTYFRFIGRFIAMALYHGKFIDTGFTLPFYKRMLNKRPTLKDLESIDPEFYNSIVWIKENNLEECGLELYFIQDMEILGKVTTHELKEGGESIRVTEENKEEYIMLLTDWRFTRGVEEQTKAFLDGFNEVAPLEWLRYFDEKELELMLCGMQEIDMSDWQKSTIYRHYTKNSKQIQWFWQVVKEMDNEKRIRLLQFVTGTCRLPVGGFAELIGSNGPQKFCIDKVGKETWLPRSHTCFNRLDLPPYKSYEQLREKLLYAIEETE

Row | interaction data at Target Concentration 10 (WWP2^HECT) | interaction data at Target Concentration 30 (WWP2^HECT) | interaction data at Target Concentration 100 (WWP2^HECT) | interaction data at Target Concentration 300 (WWP2^HECT) | interaction data at Target Concentration 1000 (WWP2^HECT; first column) | interaction data at Target Concentration 1000 (WWP2^HECT; second column) | Sequence | interaction data at Target Concentration 10 (WWP1) | interaction data at Target Concentration 30 (WWP1) | interaction data at Target Concentration 100 (WWP1) | interaction data at Target Concentration 300 (WWP1) | interaction data at Target Concentration 1000 (WWP1; first column) | interaction data at Target Concentration 1000 (WWP1; second column)
1 | – | – | – | – | – | – | DPAIMSCMYAAEVCRVL (linker 7-14 via Phenylene(1,4-NHCOCH2)2) | 0 | 1 | 147 | 109 | 183 | 253
2 | – | – | – | – | – | – | DPAHQTCAFAAVLCHQN (linker 7-14 via Phenylene(1,4-NHCOCH2)2) | 0 | 0 | 32 | 18 | – | 309
3 | – | – | – | – | – | – | DPAIFDCEFAAHVCSVL (linker 7-14 via Phenylene(1,4-NHCOCH2)2) | 0 | 26 | – | 436 | 275 | 618
4 | – | – | – | – | – | – | DPAIQRCSTAAQVCRYL (linker 7-14 via Phenylene(1,4-NHCOCH2)2) | 0 | 6 | 202 | 236 | – | 197
5 | – | – | – | – | – | – | DPARWACTEAAHVCDTL (linker 7-14 via Phenylene(1,4-NHCOCH2)2) | 0 | 2 | – | 182 | 183 | 281
6 | – | – | – | – | – | – | DPAVRDCSDAAIVCELV (linker 7-14 via Phenylene(1,4-NHCOCH2)2) | 5 | 5 | 147 | 91 | – | 197
7 | – | – | – | – | – | – | DPAMRRCHQAAWVCEVL (linker 7-14 via Phenylene(1,4-NHCOCH2)2) | 0 | 1 | 98 | 182 | 183 | 140
8 | – | – | – | – | – | – | DPATMNCTLAANICHSH (linker 7-14 via Phenylene(1,4-NHCOCH2)2 (inferred); not fully specified (C-terminus)) | 0 | 0 | 3 | 363 | 458 | 197
9 | – | – | – | – | – | – | DPAFHYCTMAANMCHQD (linker 7-14 via Phenylene(1,4-NHCOCH2)2) | 0 | 0 | 3 | 73 | – | 169
10 | – | – | – | – | – | – | DPAWVSCVRAANLCHVS (linker 7-14 via Phenylene(1,4-NHCOCH2)2 (inferred); not fully specified (C-terminus)) | 33 | 1 | 0 | 0 | 183 | 140
11 | – | – | – | – | – | – | DPAQLSCTVAAHVCHST (linker 7-14 via Phenylene(1,4-NHCOCH2)2; not fully specified (C-terminus)) | 0 | 25 | 0 | 254 | 275 | 140
12 | – | – | – | – | – | – | DPAATLCNQAANVCALL (linker 7-14 via Phenylene(1,4-NHCOCH2)2) | 0 | 0 | 132 | 145 | – | 197
13 | – | – | – | – | – | – | DPATHVCTTAA VMCHQT (DPATHVCTTAAVMCHQT; not fully specified; cysteine pairing not given here) | 0 | 0 | 6 | 327 | 275 | 365
14 | – | – | – | – | – | – | DPARLDCTAAAYVCSVL (linker 7-14 via Phenylene(1,4-NHCOCH2)2) | 0 | 0 | 109 | 91 | – | 140
15 | – | – | – | – | – | – | DPAWMACAWAANLCHSS (linker 7-14 via Phenylene(1,4-NHCOCH2)2) | 0 | 18 | 14 | 91 | 244 | 253
16 | – | – | – | – | – | – | DPALASCQQAAWVCEVL (linker 7-14 via Phenylene(1,4-NHCOCH2)2) | 0 | 43 | 173 | 291 | – | 309
17 | – | – | – | – | – | – | DPAHTACNQAARVCHTL (linker 7-14 via Phenylene(1,4-NHCOCH2)2) | 1 | 4 | 104 | 200 | – | 253
18 | – | – | – | – | – | – | DPAFLTCTLAASLCHQD (linker 7-14 via Phenylene(1,4-NHCOCH2)2) | 0 | 0 | 0 | 145 | – | 253
19 | – | – | – | – | – | – | DPAIIRCTSAAMMCHNT (linker 7-14 via Phenylene(1,4-NHCOCH2)2) | 0 | 4 | 0 | 55 | 183 | 169
20 | 37 | 57 | 70 | 94 | 78 | 123 | DPATYYCEAAAETCRFF (linker 7-14 via Phenylene(1,4-NHCOCH2)2 (inferred); not fully specified (C-terminus)) | – | – | – | – | – | –
21 | 0 | 1 | 4 | 8 | 12 | 12 | DPATWDCRNAAWLCLLN (linker 7-14 via Phenylene(1,4-NHCOCH2)2 (inferred); not fully specified (C-terminus)) | – | – | – | – | – | –
22 | 0 | 65 | 96 | 109 | 117 | 127 | DPAIQNCRSAADVCMFF (linker 7-14 via Phenylene(1,4-NHCOCH2)2; not fully specified (C-terminus)) | – | – | – | – | – | –
23 | 43 | 87 | 89 | 139 | 127 | 194 | DPAIHSCYAAAETCQFF (linker 7-14 via Phenylene(1,4-NHCOCH2)2 (inferred)) | – | – | – | – | – | –
24 | 0 | 0 | 0 | 8 | 12 | 20 | DPAIWDCLYAATNCYIN (linker 7-14 via Phenylene(1,4-NHCOCH2)2; not fully specified (C-terminus)) | – | – | – | – | – | –
25 | 165 | 532 | 522 | 555 | 466 | 573 | DPARVDCLVAADMCHMF (DPARVDCLVAADMCHMF-NH2; linker 7-14 via Phenylene(1,4-NHCOCH2)2; N-terminus assumed; SMILES CSCC[C@H](NC(=O)[C@H](Cc1c[nH]cn1)NC(=O)[C@@H]1CSCC(=O)Nc2ccc(cc2)NC(=O)CSC[C@H](NC(=O)[C@H](CC(=O)O)NC(=O)[C@@H](NC(=O)[C@H](CCCNC(=N)N)NC(=O)[C@H](C)NC(=O)[C@@H]2CCCN2C(=O)[C@@H](N)CC(=O)O)C(C)C)C(=O)N[C@@H](CC(C)C)C(=O)N[C@@H](C(C)C)C(=O)N[C@@H](C)C(=O)N[C@@H](C)C(=O)N[C@@H](CC(=O)O)C(=O)N[C@@H](CCSC)C(=O)N1)C(=O)N[C@@H](Cc1ccccc1)C(N)=O) | – | – | – | – | – | –
26 | 0 | 0 | 1 | 4 | 9 | 13 | DPATWDCIWAAERCWRY (linker 7-14 via Phenylene(1,4-NHCOCH2)2 (inferred); not fully specified (C-terminus)) | – | – | – | – | – | –

Source: patent US20240376151A1, “STAPLED PEPTIDES AND METHODS THEREOF” (FOG PHARMACEUTICALS, INC., priority 2022, published 2024)
